The values that follow come from the nanobody polyreactivity screen of Harvey et al. (2022).

The nature of this data set: yeast display, Sf9 membrane polyspecificity reagent, FACS + sequencing; frameworks hold sequencing errors. The method, boiled down: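 A nanobody's polyreactivity label depends on the gate it was sorted from. Yeast display cells were stained with 10% biotinylated, detergent-solubilized Sf9 membrane reagent for 1 hour at 4 °C, enriched on streptavidin microbeads and sorted by FACS. The low and high (top ~1%) gates were set on anti-HA fluorescence for expression and streptavidin fluorescence for reagent binding.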
As for “QVQLVESGVGLVQAGGSLLLSCSSSGRIFDLNAMGWYRQAPGKERELVAVIDRDGSTYYADSVKGRFTISRDNAKNTVYLQMNSLKPEDTAVYYCNKYWYSRHVRYWAYYAEQRYDYWGQGTQVTVSS”, the “polyreactivity (PSR sort gate)” value is given as “low polyreactivity”. Consider “QVQLVESGVGLVQAGGSLRISCAASRSTFWNNCMGWYRQAPGKERDLVAAITVRGGSTYYADSVKGRFTISRDNAKNTVYLQMNSLKPEDTAVYFCAADRWLYSWFFNYDQGDYWGQGTQVSVSS”, for which the “polyreactivity (PSR sort gate)” value was “low polyreactivity”.

With “QVQLVESGVGLVQAGGSLRLICAASGFIFFGNAMGWYRQAPGKERQLVAVITWSGGSTYADSVKGRFTISRDNAKNTVYLQMNSLKPEDTAVYYCAADQQTWWQYSLINEYDYWGQGTQVTVSS”, the “polyreactivity (PSR sort gate)” value is given as “low polyreactivity”. Regarding “QVQLVESGVGLVQAGGSLRLLCAASGSIFTTYPMGWYRPAPGKERELVAAITSSSGSTYYADSVKGRFTISRDNAKNTVYLQMNSLKPEDTAVYYCNATYSAAVDYWGQGTQVTVSS”, the “polyreactivity (PSR sort gate)” value is “low polyreactivity”. The value for “QVQLVESGVGLVQAGGSLRLRCAASGSILGGNAMGWYRQAPGKERELVAAITFSGGGTYYADSVKGRFTISRDNAKNTVYLQMNSRKPEDTAVYYCNAFAPDYYHVYPAEDYWGQGTQVTVSS” was “low polyreactivity”. Turning to “QVQLVESGVGLVQAGGSLRLSCAASGFIFGYYTMGWYRQAPGNERELVAAITYRGGSTYYAYSVKGRFTISRDNAKNTVYLQMNRLKPEDTAVYYCAIRTNVGHDSWGQGTEVTVSS”, the “polyreactivity (PSR sort gate)” value was “high polyreactivity”. As to “QVQLVESGVGLVQAGGSLRLSCAASGFIFYPNAMGWYRQAPGKEREWVAVITGGGSTRYADSVKGRFTISRDNAKNTVYLQMNSLKPEDTAVYYCAVGTVYLTYRGYEYWGQGTQVTVSS”, the “polyreactivity (PSR sort gate)” value is “high polyreactivity”.

As to “QVQLVESGVGLVQAGGSLRLSCAASGFILGQYTMGWYRQAPGKERELVAAISSSGSTNYADSVKGRFTISRDNAKNTVYLQMNSLKPEDTAVYYCNGDGNPDFYYSFYDEYDYWGQGTQVTVSS”, the “polyreactivity (PSR sort gate)” value is listed as “low polyreactivity”. The value for “QVQLVESGVGLVQAGGSLRLSCAASGFSFAVYGMGSYIQAPGKQRELVAAISTGDSTKYADSVKARFTISRDNAKNTVYLQKNSLKPEDTEVYYCAARIPWSPWLGYWGQGTQVTVST” was “high polyreactivity”.

As to “QVQLVESGVGLVQAGGSLRLSCAASGFTFCPYDKGWYRQAPGKERELVAVIIGGDSTNYADSVKGRFTISRDNAKNTVYLLMNSLKPEDTAVYYCASDYIDRVGWMDYWGQGTQVTVSS”, the “polyreactivity (PSR sort gate)” value is given as “low polyreactivity”. On to “QVQLVESGVGLVQAGGSLRLSCAASGFTFNYNAMGWYRQAPGKERELVADISRSGGSTYYADSVKGRFTISRDNAKNTVYLQMNSLKPEDTPVYYCAAVRAIGKYGYWGHGTQVTVSS”, for which the “polyreactivity (PSR sort gate)” value is “high polyreactivity”.

With “QVQLVESGVGLVQAGGSLRLSCAASGITFEGYAMGWYRQAPGKERELVAAIRSSGTSTYYADSVKGRFTMSRDNAKNTVYLQMNSLKPEDTAVYYCNRARSSSRYDYWGQGTQVTVSS”, the “polyreactivity (PSR sort gate)” value is “low polyreactivity”.

As for “QVQLVESGVGLVQAGGSLRLSCAASGLILANYAMGWYRQAPGKERELVAAISSSGGSTYYADSVKGRFTISRDNAKNTVYLQMNSLKPEDTAVYYCAAYPLYRRRWTGDYWGQGTQVTVSS”, the “polyreactivity (PSR sort gate)” value was “high polyreactivity”. “QVQLVESGVGLVQAGGSLRLSCAASGLILYTYAMGWYRQAPGKESELVAAINSGGRTNYADSVKGRFTISRDNAKNSVYLQMNSLKPEDTAVYYCAADYGSRVRGFNYWGQGTQVTVSS”: the “polyreactivity (PSR sort gate)” value is on record as “low polyreactivity”. As to “QVQLVESGVGLVQAGGSLRLSCAASGLTFVDNVMGWYRQAPRTERELVADISSSGGSTYADSVKGRFTISRDNAKNTVYFQMNSLKPEDTAVYYCAAGDDSSGEQVDYWGQGTQVTVSS”, the “polyreactivity (PSR sort gate)” value is “low polyreactivity”. The value for “QVQLVESGVGLVQAGGSLRLSCAASGLTFYSYAMGWSRQAPGKERELVATISRNGGPTRYADSVKGRFTISRDNAKNTVYLQMNSLKPEDTAVYYCTYVQSGEYDYWGQGTQVTVSS” was “high polyreactivity”; that for “QVQLVESGVGLVQAGGSLRLSCAASGNTFGKYAMGWYRQAPGTERELVATITRRGGSTYYADSVKGRFTISRDKAKNSVYLQMNSLKPEDTAVYYCNRAVTYVTYVYWGQGTQVTVSS” was “high polyreactivity”. Next, “QVQLVESGVGLVQAGGSLRLSCAASGRIFNDNAMGWYSQAPGKERELVAAISTGGSTNYADSVKWRFTISRDNAKNTVYLQMNSLKPEDTEVYYCAADHPVTYETSKFDYWGQGTQVTVSS”: “low polyreactivity”; “QVQLVESGVGLVQAGGSLRLSCAASGRIFNRYAMGWYRQAPGKERELVAAITGSGGRTYYADSVKGRFTISRDNAKNTVYVVRISMKPEDTAVYFCAKYYPEYPAYGRGDYWGQGTQVTVSS”: “low polyreactivity”; “QVQLVESGVGLVQAGGSLRLSCAASGRIFNSYAMGWYRQAPGKERELVAAISRNGGITYYADSVKGRFTISRDNAKNTVYLQMNSLKPEDTAVYYCAADGLTPKAIWTSDYWGQGTQVTVSS”: “high polyreactivity”. On to “QVQLVESGVGLVQAGGSLRLSCAASGRIFRLYAMGWYRQAPGKERELVAAISSSGGDTYYADSVKGRFTISRDNAKNTVYLQMNSLKPEDTAVYDCNARKRYANVHYNYWGQGTQVTVSS”, for which the “polyreactivity (PSR sort gate)” value is given as “high polyreactivity”. In the case of “QVQLVESGVGLVQAGGSLRLSCAASGRIFTSNAMGWYRQAPGKERELVAAIHRGGSTYYADSVKGRFTISRDNAKNTVYLQMNSLKPEDTAVYYCNAYRKSARSGGHYDYWGQGTQVTVSS”, the “polyreactivity (PSR sort gate)” value is listed as “low polyreactivity”.

Take “QVQLVESGVGLVQAGGSLRLSCAASGRIFYGYAMGWYRQAPGKEREFVARINVSGTSTFYADSVKGRFTISRDNAKNTVYLQMSSLKPEDTAVYDCAARGLPPNDYCYVHGYIMDYWGQGTQVTVSS”: the “polyreactivity (PSR sort gate)” value is “low polyreactivity”. On to “QVQLVESGVGLVQAGGSLRLSCAASGRIFYRNAMGWYRQAPGKEREFVAAITFRSGGTYYADSVKGRFTISRDNAKNTVYLQMNSLKPEDTAVYYCATRYLGASRYGYWGQGTQVTVSS”, for which the “polyreactivity (PSR sort gate)” value was “high polyreactivity”. With “QVQLVESGVGLVQAGGSLRLSCAASGRILYPNTMGWYRQAPGKERELVAAISGSGYRTYYADSVKGRFTISRDNAKNTVYLQMNSLKPEDTAVYYCAASGYWPFRSGFGYWGQGTQVTVSS”, the “polyreactivity (PSR sort gate)” value was “high polyreactivity”. Regarding “QVQLVESGVGLVQAGGSLRLSCAASGRTFAIYTMGWYRQAPGKERELVARISIRGGSTYYADSVKGRFTISRDTAKITFYLQLTSLKPEDNAVYYCAAVGYFGGYRYDYWGQGTQVSVSS”, the “polyreactivity (PSR sort gate)” value is reported as “high polyreactivity”. With “QVQLVESGVGLVQAGGSLRLSCAASGRTFDVYAMGWYRQAPGKERELVAAISRGGSTYYADSVKGRFTISRDNAKNTVYLQMNSLKPEDTAVYYCNKAYSSTRGYGYWGQGTQVTVSS”, the “polyreactivity (PSR sort gate)” value is “high polyreactivity”.

For “QVQLVESGVGLVQAGGSLRLSCAASGRTFPYYAMGWYRQAPGKERELVAAISRRGASTYYADSVKGRFTISRDNAKNTVYLQINSLKPEDTAVYYCNAVYRGYYSGELDYWGQGTQVTVSS”, the “polyreactivity (PSR sort gate)” value is recorded as “high polyreactivity”. Next, “QVQLVESGVGLVQAGGSLRLSCAASGRTFRSYTMGWYRQAPGKERELVAAINRGDRTYADSVKGRFTISRDNAKNTVYLQMNSLKPEDTAVYYCNARYYTHRYDYWGQGTQVTVSS”: “high polyreactivity”. As to “QVQLVESGVGLVQAGGSLRLSCAASGRTFSRNAMGWYRQAPGKERELVAAISRSGGSTYYADSVKGRFTISRDNAKNTVYLQMNSLKPEDTAVYYCNADVYSTYYNYNYWGQGTQVTVSS”, the “polyreactivity (PSR sort gate)” value is listed as “high polyreactivity”. For the sequence “QVQLVESGVGLVQAGGSLRLSCAASGSIFEYYTMGWYRQAPGKERELVAAISSDGSTNYADSVTGRFTISRDDAKTTVYLQMISLKPEDTAVDYCASSTSRFYYYRKRGYWGQGTQVTVSS”, the “polyreactivity (PSR sort gate)” value is “low polyreactivity”. As for “QVQLVESGVGLVQAGGSLRLSCAASGSIFTYYAMGWYRQAPGKEREFVAGISWSGGRTYYADSVKGRFTISRDNAKNTVYLQMNSLKPEDTAVYYCNRQYRYIPSPCDYWGQGTQVTVSS”, the “polyreactivity (PSR sort gate)” value is reported as “low polyreactivity”. The value for “QVQLVESGVGLVQAGGSLRLSCAASGSIFYRYAMGWYRQAPGKEREFVARITSSGGSTNYADSVKGRFTISRDNAKNTVYLQMNSLKPEDTAVYYCAKRGWSSYGRYDSWGQGTQVTVSS” was “high polyreactivity”; that for “QVQLVESGVGLVQAGGSLRLSCAASGSISQGNAMGWYRQAPGKERELVAANRWTSGRTYYADSVKGRFTISRDIAKNTVYLQMNSLKPEDTAEYYCAAYYVYYTPTLFDRVYWGQGSQVTVSS” was “low polyreactivity”. Next, “QVQLVESGVGLVQAGGSLRLSCAASGSTFRGYAMGWYRQAPGKERELVAAISGIGGSTYYADSVKGRFTISRDNAKNTVYLQMNSLKPEDTAVYYCNAVSGDSGDYWGQGTQVTVSS”: “low polyreactivity”; “QVQLVESGVGLVQAGGSLRLSCAASGSTFTANAMGLYRQAPGKERELVAAISSTGGSTYYADSVKGRFTISRDNEKNTVYLQMNSLKPEDTAVYYCNKDGPYQVITYDYWGQGTKVTVSS”: “high polyreactivity”; “QVQLVESGVGLVQAGGSLRLSCAASGSTFVYMGWYRQAPGKEREFVAAITWSGGSTYYADSVKGRFTISRDNAKNTVYLQMNSLKPEDTAVYYCNAVSVFPGWARYYYWGQGTQVTVSS”: “low polyreactivity”. The value for “QVQLVESGVGLVQAGGSLRLSCAASGSTFYRYAMGWYRQAPGKERELVAAIRGSGGRTYYADSVKGRFTISRDNAKNTVYLQMNSLKPEDTAVYYCAAYRGVSQKGDYWGQGTQVTVSS” was “high polyreactivity”; that for “QVQLVESGVGLVQAGGSLRLSCAASGSTFYVYTMGWYRQAPGKERELVAAISLSGDNTYYADSVKGRFTISRDNAKNTVYLQMNSLKPEDTAVYYCAADVFYSPSAQKYDSWGQGTQVTVSS” was “low polyreactivity”; that for “QVQLVESGVGLVQAGGSLRLSCAASGYIFFGNAMGWYRQAPGKERELVAAIRWRGTSTYYADSVKGRFTISRDNAKNTVYLQMNSLKPEDTAVYYCAADVVRSNFYGTFLYDYDYWGQGTQVTVSS” was “low polyreactivity”. In the case of “QVQLVESGVGLVQAGGSLRLSCAAYGSIFDGYAMGWYRPAPGKEREFVATITVSGGRSYYADSVKGSFTISRDNANNTVYLEMNSLKPEDTAVYYGNVDVFYYPHRYDYWGQGTQVTVSS”, the “polyreactivity (PSR sort gate)” value was “high polyreactivity”.
